Assays:
[1] = target: tau oligomer secreted into the culture supernatant by human tauopathy iNs (FTDP-17 patient, MAPT intron 10+14 C>T) (human) (UniProt P10636); test: immunodepletion of human tauopathy iN culture supernatant with antibody-bound beads; tau oligomer measured by ELISA
[2] = target: tau oligomer secreted into the culture supernatant by human tauopathy iNs (FTDP-17 patient, MAPT intron 10+14 C>T) (human) (UniProt P10636); test: cell-based or functional assay

tau oligomer secreted into the culture supernatant by human tauopathy iNs (FTDP-17 patient, MAPT intron 10+14 C>T) (human), sequence (P10636 other isoform, or with tags, fused parts or gaps limits assumed): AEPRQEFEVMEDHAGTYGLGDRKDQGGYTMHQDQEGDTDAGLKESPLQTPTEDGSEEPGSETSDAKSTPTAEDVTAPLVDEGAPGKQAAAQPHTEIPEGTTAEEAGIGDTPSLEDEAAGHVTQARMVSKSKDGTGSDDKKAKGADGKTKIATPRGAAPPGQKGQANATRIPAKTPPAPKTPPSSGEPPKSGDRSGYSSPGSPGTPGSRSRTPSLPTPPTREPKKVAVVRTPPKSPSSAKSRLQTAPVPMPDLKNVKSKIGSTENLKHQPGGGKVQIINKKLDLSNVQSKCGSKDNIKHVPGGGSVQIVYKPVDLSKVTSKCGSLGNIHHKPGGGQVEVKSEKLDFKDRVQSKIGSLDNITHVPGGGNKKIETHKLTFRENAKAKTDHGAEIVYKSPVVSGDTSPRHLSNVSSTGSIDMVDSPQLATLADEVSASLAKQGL
tau oligometric complex 1 antibody (TOC1 antibody), sequence (heavy): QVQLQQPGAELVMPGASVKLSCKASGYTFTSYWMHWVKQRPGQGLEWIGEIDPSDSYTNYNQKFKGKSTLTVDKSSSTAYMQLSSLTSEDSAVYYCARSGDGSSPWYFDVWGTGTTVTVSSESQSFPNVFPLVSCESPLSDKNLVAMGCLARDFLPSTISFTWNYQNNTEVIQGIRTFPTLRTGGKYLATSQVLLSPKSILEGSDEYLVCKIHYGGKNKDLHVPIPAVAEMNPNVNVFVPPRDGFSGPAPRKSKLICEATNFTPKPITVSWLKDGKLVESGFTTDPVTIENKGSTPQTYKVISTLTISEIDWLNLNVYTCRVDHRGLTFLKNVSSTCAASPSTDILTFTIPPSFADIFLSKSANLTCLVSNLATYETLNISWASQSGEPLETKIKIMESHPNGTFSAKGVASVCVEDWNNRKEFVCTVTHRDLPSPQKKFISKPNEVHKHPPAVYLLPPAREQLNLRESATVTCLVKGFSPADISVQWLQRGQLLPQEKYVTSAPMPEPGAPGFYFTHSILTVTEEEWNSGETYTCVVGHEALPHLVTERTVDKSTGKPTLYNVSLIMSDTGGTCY
tau oligometric complex 1 antibody (TOC1 antibody), sequence (light): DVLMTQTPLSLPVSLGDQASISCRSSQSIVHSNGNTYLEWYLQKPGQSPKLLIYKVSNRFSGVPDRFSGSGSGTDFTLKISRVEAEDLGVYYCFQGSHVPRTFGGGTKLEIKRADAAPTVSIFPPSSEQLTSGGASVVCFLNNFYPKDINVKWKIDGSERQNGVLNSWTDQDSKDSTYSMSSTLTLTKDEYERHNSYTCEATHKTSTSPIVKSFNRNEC

amount of tau oligomer left in the culture supernatant after immunodepletion [1]: 27%
Substance: tau oligometric complex 1 antibody (TOC1 antibody)
survival rate of human normal iNs two days after adding the immunodepleted culture supernatant [2]: 130%

Source: patent US20180209962A1, “SCREENING METHOD USING INDUCED NEURONS” (KYOTO UNIVERSITY, priority 2014, published 2018)
